Where two headings read alike, the source gives them in different places.
Tests used:
recombinant trypsin [1] = molecular target: recombinant trypsin (UniProt P00761)
recombinant trypsin [2] = molecular target: recombinant trypsin (UniProt P00761); experiment: enzyme inhibition titration; trypsin (1.35 mg/mL) inhibited by increasing contents of rSKTI; residual activity on BAEE, 67 mM phosphate buffer pH 7.6, 25 °C; ratio worked out from the concentrations of trypsin and rSKTI
recombinant trypsin [3] = molecular target: recombinant trypsin (UniProt P00761); experiment: enzyme inhibition kinetics (Lineweaver-Burk); trypsin (1.35 mg/mL stock) activity on BAEE (0.01-0.075 mM) with and without SKTI or rSKTI (0.63 mg/mL stock); 25 °C, 67 mM phosphate buffer pH 7.6; KI from Vmax/V'max = 1 + [I]/KI
recombinant trypsin [4] = molecular target: recombinant trypsin (UniProt P00761); experiment: as above; remark: listed apart in the source

Sequence of UniProt P00761 (P00761 whole entry): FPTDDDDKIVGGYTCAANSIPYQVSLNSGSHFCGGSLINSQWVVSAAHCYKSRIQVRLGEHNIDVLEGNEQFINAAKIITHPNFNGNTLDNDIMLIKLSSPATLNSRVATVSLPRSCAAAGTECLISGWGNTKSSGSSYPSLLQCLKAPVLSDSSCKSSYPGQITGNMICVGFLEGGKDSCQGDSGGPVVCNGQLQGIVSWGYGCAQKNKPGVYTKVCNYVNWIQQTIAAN

B1: recombinant soybean Kunitz trypsin inhibitor (natural protein)
chain: DFVLDNEGNPLENGGTYYILSDITAFGGIRAAPTGNERCPLTVVQSRNELDKGIGTIISSPYRIRFIAEGHPLSLKFDSFAVIMLCVGIPTEWSVVEDLPEGPAVKIGENKDAMDGWFRLERVSDDEFNNYKLVFCPQQAEDDKCGDIGISIDHDDGTRRLVVSKNKPLVVQFQKLDKESL
Recombinant trypsin [1]
  inhibition of trypsin (1.35 mg/mL) activity on BAEE by increasing rSKTI: IC50, the amount of rSKTI when half trypsin activity was inhibited; activity completely inhibited at 1.5 mg/mL rSKTI: 500 µg/mL
Recombinant trypsin [2]
  stoichiometry N: 1
Recombinant trypsin [3]
  Ki: 2200 nM
Recombinant trypsin [4]
  Ki: 2290 nM

B2: natural soybean Kunitz trypsin inhibitor (natural protein)
chain: DFVLDNEGNPLENGGTYYILSDITAFGGIRAAPTGNERCPLTVVQSRNELDKGIGTIISSPYRIRFIAEGHPLSLKFDSFAVIMLCVGIPTEWSVVEDLPEGPAVKIGENKDAMDGWFRLERVSDDEFNNYKLVFCPQQAEDDKCGDIGISIDHDDGTRRLVVSKNKPLVVQFQKLDKESL
Recombinant trypsin [3]
  Ki: 1670 nM

— PMC7320042
